Assay results published in PMC4681436.
Values joined by “and” are separate entries in the source; they are usually repeats but may differ in a detail not shown here. Equal values may be shown once.

Legend:
CCCCCC(=O)N[C@H]1CCOC1=O = assay: purified protein; details: 1 mM Hepes pH 7.5, 30 μM ZnSO4, 1% methanol, dizinc enzyme
CC(C)(C)OC(=O)NC1CCOC1=O = assay: purified protein; details: 1 mM Hepes pH 7.5, 30 μM ZnSO4, 1% methanol, dizinc enzyme
[1] = tested on: O=C(/C=C/c1ccccc1)N[C@H]1CCOC1=O; assay: purified protein; details: 1 mM Hepes pH 7.5, 30 μM ZnSO4, 1% methanol, dizinc enzyme
[2] = tested on: CCCCCCCCCCCC(=O)N[C@H]1CCOC1=O; assay: purified protein; details: 1 mM Hepes pH 7.5, 30 μM ZnSO4, 1% methanol, dizinc enzyme
CCCCC(=O)N[C@H]1CCOC1=O = assay: purified protein; details: 1 mM Hepes pH 7.5, 30 μM ZnSO4, 1% methanol, dizinc enzyme
[3] = tested on: CCCCCCCCCC(=O)N[C@H]1CCOC1=O; assay: purified protein; details: 1 mM Hepes pH 7.5, 30 μM ZnSO4, 1% methanol, dizinc enzyme
[4] = tested on: CCCCCCC(=O)N[C@H]1CCOC1=O; assay: purified protein; details: 1 mM Hepes pH 7.5, 30 μM ZnSO4, 1% methanol, dizinc enzyme
CCCC(=O)N[C@H]1CCOC1=O = assay: purified protein; details: 1 mM Hepes pH 7.5, 30 μM ZnSO4, 1% methanol, dizinc enzyme
[5] = tested on: CCCCCC(=O)CC(=O)N[C@H]1CCOC1=O; assay: purified protein; details: 1 mM Hepes pH 7.5, 30 μM ZnSO4, 1% methanol, dizinc enzyme
[6] = tested on: CCCCCCCC(=O)N[C@H]1CCOC1=O; assay: purified protein; details: 1 mM Hepes pH 7.5, 30 μM ZnSO4, 1% methanol, dizinc enzyme
[7] = target: AidC, N-acyl-L-homoserine lactone (AHL) lactonase from Chryseobacterium sp. strain StRB126 (Chryseobacterium sp. strain StRB126); assay: SEC-MALS

Q: How did the Km (CCCCCC(=O)N[C@H]1CCOC1=O) turn out when AidC (Chryseobacterium sp. StRB126) was run?
A: 61 ± 4 µM

Q: And the kcat (CCCCCC(=O)N[C@H]1CCOC1=O)?
A: 59 ± 1 s⁻¹

Q: What about the kcat/Km (CCCCCC(=O)N[C@H]1CCOC1=O) of the same substance?
A: 970000 M⁻¹ s⁻¹

Q: And the Km (CC(C)(C)OC(=O)NC1CCOC1=O)?
A: 740 ± 70 µM

Q: What about the kcat (CC(C)(C)OC(=O)NC1CCOC1=O) of the same substance?
A: 44 ± 1 s⁻¹

Q: And the kcat/Km (CC(C)(C)OC(=O)NC1CCOC1=O)?
A: 59000 M⁻¹ s⁻¹

Q: What about the Km [1] of the same substance?
A: 470 ± 80 µM

Q: What about the kcat [1] of the same substance?
A: 25 ± 2 s⁻¹

Q: What about the kcat/Km [1] of the same substance?
A: 53000 M⁻¹ s⁻¹

Q: What about the Km [2] of the same substance?
A: 7 ± 4 µM

Q: And the kcat [2]?
A: 0.4 ± 0.05 s⁻¹

Q: What about the kcat/Km [2] of the same substance?
A: 57000 M⁻¹ s⁻¹

Q: What about the Km (CCCCC(=O)N[C@H]1CCOC1=O) of the same substance?
A: 130 ± 20 µM

Q: And the kcat (CCCCC(=O)N[C@H]1CCOC1=O)?
A: 57 ± 3 s⁻¹

Q: And the kcat/Km (CCCCC(=O)N[C@H]1CCOC1=O)?
A: 440000 M⁻¹ s⁻¹

Q: And the Km [3]?
A: 12 ± 4 µM

Q: And the kcat [3]?
A: 5.2 ± 0.4 s⁻¹

Q: What about the kcat/Km [3] of the same substance?
A: 430000 M⁻¹ s⁻¹

Q: What about the Km [4] of the same substance?
A: 47 ± 5 µM

Q: What about the kcat [4] of the same substance?
A: 80 ± 2 s⁻¹

Q: What about the kcat/Km [4] of the same substance?
A: 1.7e+06 M⁻¹ s⁻¹

Q: What about the Km (CCCC(=O)N[C@H]1CCOC1=O) of the same substance?
A: 470 ± 60 µM

Q: What about the kcat (CCCC(=O)N[C@H]1CCOC1=O) of the same substance?
A: 39 ± 2 s⁻¹

Q: What about the kcat/Km (CCCC(=O)N[C@H]1CCOC1=O) of the same substance?
A: 83000 M⁻¹ s⁻¹

Q: What about the Km [5] of the same substance?
A: 130 ± 20 µM

Q: What about the kcat [5] of the same substance?
A: 28 ± 1 s⁻¹

Q: What about the kcat/Km [5] of the same substance?
A: 220000 M⁻¹ s⁻¹

Q: What about the Km [6] of the same substance?
A: 83 ± 10 µM

Q: And the kcat [6]?
A: 45 ± 3 s⁻¹

Q: What about the kcat/Km [6] of the same substance?
A: 540000 M⁻¹ s⁻¹

Q: Which stoichiometry N [7] does the source give for “AidC, N-acyl-L-homoserine lactone (AHL) lactonase from Chryseobacterium sp. strain StRB126 (enzyme)” here?
A: 2 and 4
